Measured values reported in patent publication US20190106460A1 (published 2019).
Where two headings read alike, the source gives them in different places. Starred links: 1 amine or outer side, 2 acyl side, 3 side chain; linkers in the order of their positions; H or OH if unused. Non-standard residues stand in square brackets, D forms with d. *: point of attachment. 2Naphthylsulfonyl = O=S(=O)(c1ccc2ccccc2c1)*; 4‑(BuO)‑PhSO2 = CCCCOc1ccc(S(=O)(=O)*)cc1; Phe(3-F) = N[C@@H](Cc1cccc(F)c1)C(=O)O; 1Nal = N[C@@H](Cc1cccc2ccccc12)C(=O)O; Suc = O=C(CCC(=O)[*:2])[*:1]; Tos = Cc1ccc(S(=O)(=O)*)cc1; Ethoxycarbonyl = CCOC(=O)*

Experiments:
Skp2 = Skp2 (UniProt Q13309 1-424, limits assumed); assay: cell-based or functional assay
Sequence of Skp2 (Q13309 whole entry): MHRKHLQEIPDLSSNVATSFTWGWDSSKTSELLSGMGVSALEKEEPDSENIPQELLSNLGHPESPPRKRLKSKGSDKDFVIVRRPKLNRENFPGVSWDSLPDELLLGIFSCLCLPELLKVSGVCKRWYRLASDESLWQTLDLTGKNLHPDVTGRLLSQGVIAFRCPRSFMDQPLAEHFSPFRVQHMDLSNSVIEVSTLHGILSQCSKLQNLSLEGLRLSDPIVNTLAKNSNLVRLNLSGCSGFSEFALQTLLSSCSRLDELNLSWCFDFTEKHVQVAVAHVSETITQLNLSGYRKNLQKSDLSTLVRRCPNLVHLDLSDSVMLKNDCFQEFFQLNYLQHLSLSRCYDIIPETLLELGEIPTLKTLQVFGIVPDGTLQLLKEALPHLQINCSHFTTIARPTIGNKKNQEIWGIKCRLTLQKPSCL

Fbw7 = Fbw7 (UniProt Q969H0 263-707, limits assumed); assay: cell-based or functional assay
Sequence of Fbw7 (Q969H0 263-707 limits assumed): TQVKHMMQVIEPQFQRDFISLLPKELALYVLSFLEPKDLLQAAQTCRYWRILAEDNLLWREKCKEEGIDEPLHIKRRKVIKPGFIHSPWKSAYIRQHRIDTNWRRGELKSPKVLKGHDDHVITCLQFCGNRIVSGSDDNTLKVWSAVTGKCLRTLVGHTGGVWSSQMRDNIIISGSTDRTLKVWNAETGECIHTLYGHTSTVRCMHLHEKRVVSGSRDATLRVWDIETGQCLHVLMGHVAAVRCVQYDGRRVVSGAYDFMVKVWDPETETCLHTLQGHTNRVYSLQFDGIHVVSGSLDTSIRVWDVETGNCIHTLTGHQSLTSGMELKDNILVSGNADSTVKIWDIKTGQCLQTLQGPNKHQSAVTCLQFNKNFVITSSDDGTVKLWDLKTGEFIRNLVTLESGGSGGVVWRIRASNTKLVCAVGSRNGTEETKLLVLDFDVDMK

[1] = molecular target: T1, βTrCP (tag cleaved and complexed with Skp1) (UniProt Q9Y297 175-605; P63208 1-163); assay: FP competition vs fluorescein-IκB peptide
T1 construct: Protein of the FP assay (0.035 µM); also called Beta Transducin repeat-containing protein; βTrCP/Skp1
T1 sequence (Q9Y297 175-605, chain 1 of 2): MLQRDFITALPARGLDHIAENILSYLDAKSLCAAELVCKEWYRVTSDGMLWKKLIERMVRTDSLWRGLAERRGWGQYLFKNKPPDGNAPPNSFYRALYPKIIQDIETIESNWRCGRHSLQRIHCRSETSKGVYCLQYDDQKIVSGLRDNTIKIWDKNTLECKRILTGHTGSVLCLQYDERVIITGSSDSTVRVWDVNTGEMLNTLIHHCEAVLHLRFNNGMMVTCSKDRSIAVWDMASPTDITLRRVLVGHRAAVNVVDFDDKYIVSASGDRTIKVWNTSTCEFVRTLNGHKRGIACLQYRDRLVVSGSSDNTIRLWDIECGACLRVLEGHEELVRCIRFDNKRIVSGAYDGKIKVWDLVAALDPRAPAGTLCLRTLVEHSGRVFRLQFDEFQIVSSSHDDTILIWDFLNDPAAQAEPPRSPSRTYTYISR
T1 sequence (P63208 whole entry, chain 2 of 2): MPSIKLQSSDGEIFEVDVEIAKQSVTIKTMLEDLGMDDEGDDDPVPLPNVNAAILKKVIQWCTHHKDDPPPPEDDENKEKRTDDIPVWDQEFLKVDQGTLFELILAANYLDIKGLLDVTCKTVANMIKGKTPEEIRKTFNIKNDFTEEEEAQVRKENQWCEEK

[2] = molecular target: T1, βTrCP (tag cleaved and complexed with …); assay: FP competition vs fluorescein-IκB peptide; remark: listed apart in the source
[3] = molecular target: T2, HisβTrCP/Skp1 and HisβTrCP/GSTSkp1 (immobilised on NTA Biacore chip) (UniProt Q9Y297 175-605; P63208 1-163); assay: SPR, Biacore T200, βTrCP/Skp1 immobilised
T2 construct: SPR: KD values from both surfaces (with or without the GST moiety) were averaged to give the apparent KD; also called βTrCP surfaces
T2 sequence (Q9Y297 175-605, chain 1 of 2): as the sequence (Q9Y297 175-605, chain 1 of 2) above
T2 sequence (P63208 whole entry, chain 2 of 2): as the sequence (P63208 whole entry, chain 2 of 2) above
Excerpt: As βTrCP was His tagged, an NTA sensor chip was used. This sensor chip has a dextran surface matrix with immobilized nitrilotriacetic acid (NTA) which provides a means of capturing polyHis-tagged proteins through Nickel chelation. It was hoped that addition of Ni⁺ would orient the protein in a specific (and hopefully active) manner as it is covalently immobilised via amine coupling. Addition of EDC:NHS (N-ethyl-N′-(3-[…])-carbodiimide:N-hydroxysuccinimide) converts carboxyl groups on the dextran sensor chip surface to succinamide esters which readily form covalent bonds with primary amines. Each chip contains four flow cells (each a separate surface) which means that compounds/peptides can be passed over different forms of βTrCP and a reference surface simultaneously. If binding to βTrCP is occurring, responses should be the same (accounting for differences in density of surface etc) on each surface.
Small molecule/peptide samples to be assayed for binding to βTrCP surfaces, were provided as 10 mM stocks in 100% DMSO. All samples were tested in running buffer composed of 10 mM HEPES pH 7.4, 150 mM NaCl, 50 μM EDTA, 0.005% p20, and 1% DMSO. Serial dilutions were made using running buffer. Samples were tested over varying concentrations up to a maximum of 100 μM. Two methods of measuring the SPR response were employed: single cycle kinetics which measures the response across different concentrations of sample within a single cycle (no regeneration of surface) and a method that measures the response at a given concentration in each cycle and includes a regeneration wash after each sample injection. The regeneration solution used was the same as running buffer, but included 500 mM NaCl. Data was fitted using Biacore T200 evaluation software. KD values calculated from binding curves from both surfaces (with or without the GST moiety) were averaged to produce apparent KD's for each sample tested.

## {4‑(BuO)‑PhSO2}-[dD]EG[Phe(3-F)]WE-NH2 (also called UBP030) [4-(BuO)-PhSO2-dEGF(3F)WE-NH2]
Skp2
  % Inhibition Skp2 @ 10 µM: 0%
  % Inhibition Skp2 @ (100 µM): 13%
Fbw7
  % Inhibition Fbw7 @ 10 µM: 7%
  % Inhibition Fbw7 @ (100 µM): 12%
[1]
  IC50: 56 nM
[2]
  IC50: 56 nM
[3]
  Kd: 767 nM

B1: EtO(CO)-dEGF(3F)WE-NH2 (peptide)
peptide: Ethoxycarbonyl-[dD]EG[Phe(3-F)]WE-NH2
SMILES: CCOC(=O)N[C@H](CC(=O)O)C(=O)N[C@@H](CCC(=O)O)C(=O)NCC(=O)N[C@@H](Cc1cccc(F)c1)C(=O)N[C@@H](Cc1c[nH]c2ccccc12)C(=O)N[C@@H](CCC(=O)O)C(N)=O
notes: also called UBP023
Skp2
  % Inhibition Skp2 @ 10 µM: 4%
  % Inhibition Skp2 @ (100 µM): 4%
Fbw7
  % Inhibition Fbw7 @ 10 µM: 0%
  % Inhibition Fbw7 @ (100 µM): 12%
[1]
  IC50: 45 nM
[2]
  IC50: 45 nM
[3]
  Kd: 34 nM

B2: Ts-dEGF(3F)WE-NH2 (peptide)
peptide: Tos-[dD]EG[Phe(3-F)]WE-NH2
SMILES: Cc1ccc(S(=O)(=O)N[C@H](CC(=O)O)C(=O)N[C@@H](CCC(=O)O)C(=O)NCC(=O)N[C@@H](Cc2cccc(F)c2)C(=O)N[C@@H](Cc2c[nH]c3ccccc23)C(=O)N[C@@H](CCC(=O)O)C(N)=O)cc1
notes: also called UBP021
Skp2
  % Inhibition Skp2 @ 10 µM: 19%
  % Inhibition Skp2 @ (100 µM): 25%
Fbw7
  % Inhibition Fbw7 @ 10 µM: 9%
  % Inhibition Fbw7 @ (100 µM): 0%
[1]
  IC50: 29 nM
[2]
  IC50: 29 nM
[3]
  Kd: 190 nM

B3: 2-NaphthylSO2-dEGF(3F)WE-NH2 (peptide)
peptide: 2Naphthylsulfonyl-[dD]EG[Phe(3-F)]WE-NH2
SMILES: NC(=O)[C@H](CCC(=O)O)NC(=O)[C@H](Cc1c[nH]c2ccccc12)NC(=O)[C@H](Cc1cccc(F)c1)NC(=O)CNC(=O)[C@H](CCC(=O)O)NC(=O)[C@@H](CC(=O)O)NS(=O)(=O)c1ccc2ccccc2c1
notes: also called UBP031
Skp2
  % Inhibition Skp2 @ 10 µM: 0%
  % Inhibition Skp2 @ (100 µM): 17%
Fbw7
  % Inhibition Fbw7 @ 10 µM: 10%
  % Inhibition Fbw7 @ (100 µM): 11%
[1]
  IC50: 44 nM
[2]
  IC50: 44 nM
[3]
  Kd: 262 nM

B4: Ts-dDGF(3F)WD-NH2 (peptide)
peptide: Tos-[dD]DG[Phe(3-F)]WD-NH2
SMILES: Cc1ccc(S(=O)(=O)N[C@H](CC(=O)O)C(=O)N[C@@H](CC(=O)O)C(=O)NCC(=O)N[C@@H](Cc2cccc(F)c2)C(=O)N[C@@H](Cc2c[nH]c3ccccc23)C(=O)N[C@@H](CC(=O)O)C(N)=O)cc1
notes: also called UBP028
Skp2
  % Inhibition Skp2 @ 10 µM: 0%
  % Inhibition Skp2 @ (100 µM): 14%
Fbw7
  % Inhibition Fbw7 @ 10 µM: 4%
  % Inhibition Fbw7 @ (100 µM): 10%
[1]
  IC50: 81 nM
[2]
  IC50: 81 nM
[3]
  Kd: 637 nM

B5: Ts-dDGF(3F)WE-NH2 (peptide)
peptide: Tos-[dD]DG[Phe(3-F)]WE-NH2
SMILES: Cc1ccc(S(=O)(=O)N[C@H](CC(=O)O)C(=O)N[C@@H](CC(=O)O)C(=O)NCC(=O)N[C@@H](Cc2cccc(F)c2)C(=O)N[C@@H](Cc2c[nH]c3ccccc23)C(=O)N[C@@H](CCC(=O)O)C(N)=O)cc1
notes: also called UBP025
Skp2
  % Inhibition Skp2 @ 10 µM: 0%
  % Inhibition Skp2 @ (100 µM): 22%
Fbw7
  % Inhibition Fbw7 @ 10 µM: 1%
  % Inhibition Fbw7 @ (100 µM): 8%
[1]
  IC50: 25 nM
[2]
  IC50: 25 nM
[3]
  Kd: 292 nM

B6: Ts-dEGF(3F)WD-NH2 (peptide)
peptide: Tos-[dD]EG[Phe(3-F)]WD-NH2
SMILES: Cc1ccc(S(=O)(=O)N[C@H](CC(=O)O)C(=O)N[C@@H](CCC(=O)O)C(=O)NCC(=O)N[C@@H](Cc2cccc(F)c2)C(=O)N[C@@H](Cc2c[nH]c3ccccc23)C(=O)N[C@@H](CC(=O)O)C(N)=O)cc1
notes: also called UBP027
Skp2
  % Inhibition Skp2 @ 10 µM: 4%
  % Inhibition Skp2 @ (100 µM): 6%
Fbw7
  % Inhibition Fbw7 @ 10 µM: 3%
  % Inhibition Fbw7 @ (100 µM): 8%
[1]
  IC50: 34 nM
[2]
  IC50: 34 nM
[3]
  Kd: 680 nM

B7: Suc-EGFFE-NH2 (peptide)
peptide: Suc-EGFFE-NH2
SMILES: NC(=O)[C@H](CCC(=O)O)NC(=O)[C@H](Cc1ccccc1)NC(=O)[C@H](Cc1ccccc1)NC(=O)CNC(=O)[C@H](CCC(=O)O)NC(=O)CCC(=O)O
notes: also called UBP002
Skp2
  % Inhibition Skp2 @ 10 µM: 14%
  % Inhibition Skp2 @ (100 µM): 0%
Fbw7
  % Inhibition Fbw7 @ 10 µM: 0%
  % Inhibition Fbw7 @ (100 µM): 0%
[2]
  IC50: 3180 nM
[3]
  Kd: 29500 nM

B8: Ac-dEGF(3F)1NalE-NH2 (peptide)
peptide: Ac-[dD]EG[Phe(3-F)][1Nal]E-NH2
SMILES: CC(=O)N[C@H](CC(=O)O)C(=O)N[C@@H](CCC(=O)O)C(=O)NCC(=O)N[C@@H](Cc1cccc(F)c1)C(=O)N[C@@H](Cc1cccc2ccccc12)C(=O)N[C@@H](CCC(=O)O)C(N)=O
notes: also called UBP016
Skp2
  % Inhibition Skp2 @ 10 µM: 0%
  % Inhibition Skp2 @ (100 µM): 7%
Fbw7
  % Inhibition Fbw7 @ 10 µM: 3%
  % Inhibition Fbw7 @ (100 µM): 8%
[1]
  IC50: 112 nM
[2]
  IC50: 112 nM
[3]
  Kd: 590 nM
